From paper PMC9348664, “PFKFB4 interacts with ICMT and activates RAS/AKT signaling-dependent cell migration in melanoma” (Life Science Alliance, 2022)

Molecular target: the molecule itself
Assay: two-hybrid; MaMTH (mammalian membrane split-ubiquitin two-hybrid) in MaMTH-modified HEK293T cells; bait fused to Cub-GAL4, prey fused to Nub; GAL4-driven luciferase normalised to Renilla

B1: human PFKFB4 as MaMTH fusions (PFKFB4-Cub-GAL4 bait; PFKFB4-Nub prey) (enzyme, UniProt Q16877 1-469, looked up)
chain: MASPRELTQNPLKKIWMPYSNGRPALHACQRGVCMTNCPTLIVMVGLPARGKTYISKKLTRYLNWIGVPTREFNVGQYRRDVVKTYKSFEFFLPDNEEGLKIRKQCALAALRDVRRFLSEEGGHVAVFDATNTTRERRATIFNFGEQNGYKTFFVESICVDPEVIAANIVQVKLGSPDYVNRDSDEATEDFMRRIECYENSYESLDEDLDRDLSYIKIMDVGQSYVVNRVADHIQSRIVYYLMNIHVTPRSIYLCRHGESELNLKGRIGGDPGLSPRGREFAKSLAQFISDQNIKDLKVWTSQMKRTIQTAEALGVPYEQWKVLNEIDAGVCEEMTYEEIQDNYPLEFALRDQDKYRYRYPKGESYEDLVQRLEPVIMELERQENVLVICHQAVMRCLLAYFLDKAAEQLPYLKCPLHTVLKLTPVAYGCKVESIFLNVAAVNTHRDRPQNVDISRPPEEALVTVPAHQ
notes: 6-phosphofructo-2-kinase/fructose-2,6-biphosphatase 4 (PFKFB4), human, inserted in-frame into the MaMTH bait or prey vectors; One molecule for the differently tagged copies of the same protein; The bait copy carries Cub-GAL4; The prey copy carries Nub at its N- or C-terminus (both were tested against the PFKFB4 bait); also called hPFKFB4; source: MaMTH-modified HEK293T, transfected, in cells; not …
  fold increase of luciferase expression over PFKFB4-Cub-GAL4 alone (Nub at the C-terminus of the prey): 13 times
  fold increase of luciferase expression over PFKFB4-Cub-GAL4 alone (Nub at the N-terminus of the prey): 5 times
